Data from patent US20190153108A1 (AbbVie / Abbott, published 2019).
Where a chain is given by its changes, count along the chain named. Each block holds one binder with its values, some of them ahead of it.

Molecular target: human Epidermal Growth Factor Receptor (huEGFR) over-expressed in mcl-1-/- mouse embryonic fibroblasts (human, UniProt P00533 25-1210)
Assay: cell-based or functional assay

huEGFR^+ mcl-1^-/- MEF EC50: 51 nM
B1: AbB-YY (antibody, V domains shown)
VH: EVQLQESGPGLVKPSQTLSLTCTVSGYSISNDFAWNWIRQPPGKGLEWMGYISYKGNTRYQPSLKSRITISRDTSKNQFFLKLNSVTAADTATYYCVTASRGFPWWGQGTLVTVSS
VL: DIQMTQSPSSMSVSVGDRVTITCHSSQDINSNIGWLQQKPGKSFKGLIYHGTNLDDGVPSRFSGSGSGTDYTLTISSLQPEDFATYYCVQYAQFPWTFGGGTKLEIKR
modifications: synthon YY on reduced interchain Cys

huEGFR^+ mcl-1^-/- MEF EC50: 4.6 nM
B2: AbB-AAD (antibody, V domains shown)
VH: B1 VH
VL: B1 VL
modifications: synthon AAD on reduced interchain Cys

huEGFR^+ mcl-1^-/- MEF EC50: 104 nM
B3: AbA-ZT (antibody, V domains shown)
VH: B1 VH with N31R, K55N, W105Y
VL: B1 VL
modifications: synthon ZT on reduced interchain Cys

huEGFR^+ mcl-1^-/- MEF EC50: 0.4 nM
B4: AbK-AAD (antibody, V domains shown)
VH: B1 VH with N31R, K55N
VL: B1 VL with N30T, S31Y, I33V, T52S, D56H, A92D, Q93D
modifications: synthon AAD on reduced interchain Cys

huEGFR^+ mcl-1^-/- MEF EC50: 3 nM
B5: AbA-TV (antibody, V domains shown)
VH: B1 VH with N31R, K55N, W105Y
VL: B1 VL
modifications: synthon TV on reduced interchain Cys

huEGFR^+ mcl-1^-/- MEF EC50: 0.1 nM
B6: AbK-CZ (antibody, V domains shown)
VH: B1 VH with N31R, K55N
VL: B1 VL with N30T, S31Y, I33V, T52S, D56H, A92D, Q93D
modifications: synthon CZ on reduced interchain Cys

huEGFR^+ mcl-1^-/- MEF EC50: 0.15 nM
B7: AbK-TV (antibody, V domains shown)
VH: B1 VH with N31R, K55N
VL: B1 VL with N30T, S31Y, I33V, T52S, D56H, A92D, Q93D
modifications: synthon TV on reduced interchain Cys

huEGFR^+ mcl-1^-/- MEF EC50: 35 nM
B8: AbK-WD (antibody, V domains shown)
VH: B1 VH with N31R, K55N
VL: B1 VL with N30T, S31Y, I33V, T52S, D56H, A92D, Q93D
modifications: synthon WD on reduced interchain Cys

huEGFR^+ mcl-1^-/- MEF EC50: 31 nM
B9: AbB-LB (antibody, V domains shown)
VH: B1 VH
VL: B1 VL
modifications: synthon LB on reduced interchain Cys

huEGFR^+ mcl-1^-/- MEF EC50: 3.4 nM
B10: AbK-AAA (antibody, V domains shown)
VH: B1 VH with N31R, K55N
VL: B1 VL with N30T, S31Y, I33V, T52S, D56H, A92D, Q93D
modifications: synthon AAA on reduced interchain Cys

huEGFR^+ mcl-1^-/- MEF EC50: 2.6 nM
B11: AbG-TV (antibody, V domains shown)
VH: B1 VH with P41L, F103L, W105Y
VL: B1 VL with N30T, S31Y, T52A, A92D, Q93E
modifications: synthon TV on reduced interchain Cys

huEGFR^+ mcl-1^-/- MEF EC50: 0.79 nM
B12: AbK-TX (antibody, V domains shown)
VH: B1 VH with N31R, K55N
VL: B1 VL with N30T, S31Y, I33V, T52S, D56H, A92D, Q93D
modifications: synthon TX on reduced interchain Cys

huEGFR^+ mcl-1^-/- MEF EC50: 47 nM
B13: AbK-YY (antibody, V domains shown)
VH: B1 VH with N31R, K55N
VL: B1 VL with N30T, S31Y, I33V, T52S, D56H, A92D, Q93D
modifications: synthon YY on reduced interchain Cys

huEGFR^+ mcl-1^-/- MEF EC50: 17 nM
B14: AbK-LB (antibody, V domains shown)
VH: B1 VH with N31R, K55N
VL: B1 VL with N30T, S31Y, I33V, T52S, D56H, A92D, Q93D
modifications: synthon LB on reduced interchain Cys

huEGFR^+ mcl-1^-/- MEF EC50: 3.4 nM
B15: AbG-CZ (antibody, V domains shown)
VH: B1 VH with P41L, F103L, W105Y
VL: B1 VL with N30T, S31Y, T52A, A92D, Q93E
modifications: synthon CZ on reduced interchain Cys

huEGFR^+ mcl-1^-/- MEF EC50: 108 nM
B16: AbG-AAD (antibody, V domains shown)
VH: B1 VH with P41L, F103L, W105Y
VL: B1 VL with N30T, S31Y, T52A, A92D, Q93E
modifications: synthon AAD on reduced interchain Cys

huEGFR^+ mcl-1^-/- MEF EC50: 5.3 nM
B17: AbG-TX (antibody, V domains shown)
VH: B1 VH with P41L, F103L, W105Y
VL: B1 VL with N30T, S31Y, T52A, A92D, Q93E
modifications: synthon TX on reduced interchain Cys

huEGFR^+ mcl-1^-/- MEF EC50: 27 nM
B18: AbA-LB (antibody, V domains shown)
VH: B1 VH with N31R, K55N, W105Y
VL: B1 VL
modifications: synthon LB on reduced interchain Cys

huEGFR^+ mcl-1^-/- MEF EC50: 304 nM
B19: AbA-WD (antibody, V domains shown)
VH: B1 VH with N31R, K55N, W105Y
VL: B1 VL
modifications: synthon WD on reduced interchain Cys

huEGFR^+ mcl-1^-/- MEF EC50: 186 nM
B20: AbA-ZZ (antibody, V domains shown)
VH: B1 VH with N31R, K55N, W105Y
VL: B1 VL
modifications: synthon ZZ on reduced interchain Cys

huEGFR^+ mcl-1^-/- MEF EC50: > 500 nM
B21: AbG-YY (antibody, V domains shown)
VH: B1 VH with P41L, F103L, W105Y
VL: B1 VL with N30T, S31Y, T52A, A92D, Q93E
modifications: synthon YY on reduced interchain Cys

huEGFR^+ mcl-1^-/- MEF EC50: 24 nM
B22: AbG-LB (antibody, V domains shown)
VH: B1 VH with P41L, F103L, W105Y
VL: B1 VL with N30T, S31Y, T52A, A92D, Q93E
modifications: synthon LB on reduced interchain Cys

huEGFR^+ mcl-1^-/- MEF EC50: 5.8 nM
B23: AbG-WD (antibody, V domains shown)
VH: B1 VH with P41L, F103L, W105Y
VL: B1 VL with N30T, S31Y, T52A, A92D, Q93E
modifications: synthon WD on reduced interchain Cys

huEGFR^+ mcl-1^-/- MEF EC50: 23 nM
B24: AbB-WD (antibody, V domains shown)
VH: B1 VH
VL: B1 VL
modifications: synthon WD on reduced interchain Cys

huEGFR^+ mcl-1^-/- MEF EC50: 220 nM
B25: AbG-AAA (antibody, V domains shown)
VH: B1 VH with P41L, F103L, W105Y
VL: B1 VL with N30T, S31Y, T52A, A92D, Q93E
modifications: synthon AAA on reduced interchain Cys

huEGFR^+ mcl-1^-/- MEF EC50: 16 nM
B26: AbA-TX (antibody, V domains shown)
VH: B1 VH with N31R, K55N, W105Y
VL: B1 VL
modifications: synthon TX on reduced interchain Cys
